Target: the molecule itself
Test: cryo-EM structure; single-particle cryo-EM map at 4.1 Å with tetrahedral symmetry imposed, refined jointly with MAS NMR and solution-NMR restraints (XPLOR-NIH, full dodecamer)

B1: aminopeptidase TET2 from Pyrococcus horikoshii (enzyme)
chain: MEVRNMVDYELLKKVVEAPGVSGYEFLGIRDVVIEEIKDYVDEVKVDKLGNVIAHKKGEGPKVMIAAHMDQIGLMVTHIEKNGFLRVAPIGGVDPKTLIAQRFKVWIDKGKFIYGVGASVPPHIQKPEDRKKAPDWDQIFIDIGAESKEEAEDMGVKIGTVITWDGRLERLGKHRFVSIAFDDRIAVYTILEVAKQLKDAKADVYFVATVQEEVGLRGARTSAFGIEPDYGFAIDVTIAADIPGTPEHKQVTHLGKGTAIKIMDRSVICHPTIVRWLEELAKKHEIPYQLEILLGGGTDAGAIHLTKAGVPTGALSVPARYIHSNTEVVDERDVDATVELMTKALENIHELKI
notes: TET2 aminopeptidase, Pyrococcus horikoshii, UniProt O59196; 353 residues (39 kDa) per subunit as printed; Dodecamer of 12 x 39 kDa (468 kDa), with two zinc ions in each active site; Samples carried various isotope labels (2H, 13C, 15N, methyl labelling); the cryo-EM sample was u-[2H,13C,15N]-labelled; No tag is mentioned; source: E. coli BL21(DE3), purified (heating to 85 °C, Resource Q, size …)
  stoichiometry N: 12
